From article PMC9239242

Molecular target: E. coli RNA polymerase holoenzyme (native) (E. coli) (UniProt P0A8V2)

P2 Orf82 (Orf82 from Enterobacteria phage P2) (natural protein)
IC50 for inhibition of rrnB P1 transcription, multiround in vitro transcription with E. coli RNAP (4 nM to 2,000 nM factor): 250 nM
